Consider 1 protein from US20100166708.

The target in this series is T1, tumor necrosis factor receptor (TNFR)-associated factor 1, Q13077.
T1 chain: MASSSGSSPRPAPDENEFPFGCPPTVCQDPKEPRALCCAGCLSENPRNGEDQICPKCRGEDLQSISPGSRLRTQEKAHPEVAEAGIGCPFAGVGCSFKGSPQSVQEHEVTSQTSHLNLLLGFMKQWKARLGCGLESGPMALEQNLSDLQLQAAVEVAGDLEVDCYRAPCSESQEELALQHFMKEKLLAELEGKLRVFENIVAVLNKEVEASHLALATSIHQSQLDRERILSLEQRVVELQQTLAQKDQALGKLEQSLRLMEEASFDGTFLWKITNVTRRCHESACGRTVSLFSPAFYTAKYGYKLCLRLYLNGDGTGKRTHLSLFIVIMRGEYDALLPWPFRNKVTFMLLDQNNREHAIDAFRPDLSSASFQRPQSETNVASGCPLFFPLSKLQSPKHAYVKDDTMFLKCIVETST

B1: caspase 8 (protein)
chain: MDFSRNLYDIGEQLDSEDLASLKFLSLDYIPQRKQEPIKDALMLFQRLQEKRMLEESNLSFLKELLFRINRLDLLITYLNTRKEEMERELQTPGRAQISAYRVMLYQISEEVSRSELRSFKFLLQEEISKCKLDDDMNLLDIFIEMEKRVILGEGKLDILKRVCAQINKSLLKIINDYEEFSKERSSSLEGSPDEFSNGEELCGVMTISDSPREQDSESQTLDKVYQMKSKPRGYCLIINNHNFAKAREKVPKLHSIRDRNGTHLDAGALTTTFEELHFEIKPHDDCTVEQIYEILKIYQLMDHSNMDCFICCILSHGDKGIIYGTDGQEAPIYELTSQFTGLKCPSLAGKPKVFFIQACQGDNYQKGIPVETDSEEQPYLEMDLSSPQTRYIPDEADFLLGMATVNNCVSYRNPAEGTWYIQSLCQSLRERCPRGDDILTILTEVNYEVSNKDDKKNMGKQMPQPTFTLRKKLVFPSD
On to B1, for which the “cleavage of TRAF1 to N-terminal TRAF1 (western blot, normal human keratinocytes)” value is “The overexpression of TRIF caused caspase 8-dependent cleavage of TRAF1 to release N-terminal TRAF1 (N-TRAF1) (FIG. 14e), which was prevented by caspase 8 inhibitor (FIG. 14f)”.
